{"source": "paper PMC12814185", "about": "“Receptor-Mediated Shuttling of a D‑Amino Acid Peptide Achieves High Nanomolar Cytosolic Concentrations” (Journal of the American Chemical Society, 2025)", "key": {"[1]": {"target": "T1, chemokine-like receptor 1 (CMKLR1) (UniProt Q99788 1-373)", "T1 sequence (looked up)": "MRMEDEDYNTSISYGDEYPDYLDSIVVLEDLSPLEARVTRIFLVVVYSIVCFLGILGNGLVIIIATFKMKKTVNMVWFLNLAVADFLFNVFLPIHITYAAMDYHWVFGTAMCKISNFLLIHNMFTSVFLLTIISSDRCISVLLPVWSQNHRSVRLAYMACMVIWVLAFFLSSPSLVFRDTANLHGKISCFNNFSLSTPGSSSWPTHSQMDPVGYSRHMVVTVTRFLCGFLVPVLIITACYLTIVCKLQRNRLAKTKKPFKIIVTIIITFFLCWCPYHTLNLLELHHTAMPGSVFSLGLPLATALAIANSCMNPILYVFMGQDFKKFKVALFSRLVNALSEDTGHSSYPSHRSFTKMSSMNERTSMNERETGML", "experiment": "cell-based or functional assay"}, "[2]": {"target": "T2, recombinant human GST-MDM2 (human, UniProt Q00987 1-491)", "T2 construct": "source: recombinant", "T2 sequence (Q00987 whole entry)": "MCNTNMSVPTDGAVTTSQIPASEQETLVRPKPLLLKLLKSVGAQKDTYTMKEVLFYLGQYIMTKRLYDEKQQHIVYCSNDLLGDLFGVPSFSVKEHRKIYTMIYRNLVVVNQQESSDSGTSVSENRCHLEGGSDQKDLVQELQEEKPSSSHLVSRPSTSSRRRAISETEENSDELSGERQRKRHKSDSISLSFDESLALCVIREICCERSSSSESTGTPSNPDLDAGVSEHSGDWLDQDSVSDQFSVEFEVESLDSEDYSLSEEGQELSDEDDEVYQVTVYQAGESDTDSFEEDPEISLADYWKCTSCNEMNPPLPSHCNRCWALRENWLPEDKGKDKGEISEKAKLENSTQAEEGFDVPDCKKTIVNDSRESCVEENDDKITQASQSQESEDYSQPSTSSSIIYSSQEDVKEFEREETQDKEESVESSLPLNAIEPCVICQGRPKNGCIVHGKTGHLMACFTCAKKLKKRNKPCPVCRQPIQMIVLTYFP", "experiment": "fluorescence polarisation", "conditions": "both partners purified"}}, "note": "[ ]: non-standard residue; d: D form. sulfo‑Cy5 = sulfo-cyanine 5 dye; Cit = NC(=O)NCCC[C@H](N)C(=O)O; Pra = C#CC[C@H](N)C(=O)O; (EG)3 = spacer"}
{"binder": "{sulfo‑Cy5-(EG)3}-[dD][dW][dW][dP][dL][dA][dF][dE][dA][dL][dL][dR]GEV[Cit]-{(EG)3-Pra-NH2} (not fully specified (bridges); also: CuAAC triazole link from Pra to azidolysine of the cC9 chain)", "note": "[Cy5-PMIγ-cC9]", "values": [{"measurement": "Ca2+ flux assay, EC50", "setting": "[1]", "value": 185, "unit": "nM"}, {"measurement": "Kd", "setting": "[2]", "value": 90, "unit": "nM"}]}
